From patent US20200317768A1 (published 2020)

How the values were obtained:
Experiment in all cases: SPR (Biacore), antibody captured on chip, FcgR extracellular domain as analyte, 25 C
[1] = molecular target: T1, cynomolgus monkey FcγRIIb extracellular domain with C-terminal His-tag (cynomolgus monkey)
T1 construct: Expressed in FreeStyle 293 cells and purified; also called cyno FcγRIIb; cynoFcγRIIb; not shown: C-terminal His-tag
T1 chain: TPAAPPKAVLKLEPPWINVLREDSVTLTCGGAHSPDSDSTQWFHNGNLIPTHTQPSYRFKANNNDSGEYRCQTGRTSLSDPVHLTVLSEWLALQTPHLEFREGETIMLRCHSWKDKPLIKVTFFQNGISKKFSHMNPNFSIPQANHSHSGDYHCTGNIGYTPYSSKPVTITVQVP

[2] = molecular target: T2, human FcγRIIaH extracellular domain with C-terminal His-tag (human, UniProt P12318 34-217)
T2 construct: Expressed in FreeStyle 293 cells and purified; also called human FcγRIIa (type H); FcgRIIaH; not shown: C-terminal His-tag
T2 sequence: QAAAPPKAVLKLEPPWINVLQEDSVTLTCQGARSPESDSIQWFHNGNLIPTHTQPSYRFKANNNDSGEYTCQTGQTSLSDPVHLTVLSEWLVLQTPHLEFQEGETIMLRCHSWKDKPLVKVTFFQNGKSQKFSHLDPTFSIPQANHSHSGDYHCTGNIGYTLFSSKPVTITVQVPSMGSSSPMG

[3] = molecular target: T3, cynomolgus monkey FcγRIIa1 extracellular domain with C-terminal His-tag (cynomolgus monkey)
T3 construct: Expressed in FreeStyle 293 cells and purified; also called cyno FcγRIIa1; cynoFcgRIIa1; not shown: C-terminal His-tag
T3 chain: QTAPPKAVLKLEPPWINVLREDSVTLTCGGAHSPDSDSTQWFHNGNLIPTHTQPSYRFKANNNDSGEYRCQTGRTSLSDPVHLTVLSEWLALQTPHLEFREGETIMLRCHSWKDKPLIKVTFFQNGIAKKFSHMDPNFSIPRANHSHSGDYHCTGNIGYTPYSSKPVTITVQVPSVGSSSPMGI

[4] = molecular target: T4, cynomolgus monkey FcγRIIa3 extracellular domain with C-terminal His-tag (cynomolgus monkey)
T4 construct: Expressed in FreeStyle 293 cells and purified; also called cyno FcγRIIa3; cynoFcgRIIa3; not shown: C-terminal His-tag
T4 chain: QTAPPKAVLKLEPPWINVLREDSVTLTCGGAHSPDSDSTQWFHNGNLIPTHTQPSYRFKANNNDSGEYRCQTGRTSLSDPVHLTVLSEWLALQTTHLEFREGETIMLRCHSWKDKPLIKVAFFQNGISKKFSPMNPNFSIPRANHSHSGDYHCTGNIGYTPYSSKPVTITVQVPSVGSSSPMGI

[5] = molecular target: T5, human FcγRIIIaV extracellular domain with C-terminal His-tag (human, UniProt P08637 17-208)
T5 construct: Expressed in FreeStyle 293 cells and purified; also called FcgRIIIaV; not shown: C-terminal His-tag
T5 sequence (P08637 17-208 F176V): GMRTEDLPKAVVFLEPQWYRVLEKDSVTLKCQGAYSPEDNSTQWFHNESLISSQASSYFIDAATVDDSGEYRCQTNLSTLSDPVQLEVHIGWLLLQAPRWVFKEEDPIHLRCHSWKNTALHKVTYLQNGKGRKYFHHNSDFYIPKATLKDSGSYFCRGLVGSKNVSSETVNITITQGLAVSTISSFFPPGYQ

[6] = molecular target: T6, human FcγRIIaR extracellular domain with C-terminal His-tag (human, UniProt P12318 34-217)
T6 construct: Expressed in FreeStyle 293 cells and purified; also called human FcγRIIa (type R); FcgRIIaR; not shown: C-terminal His-tag
T6 chain: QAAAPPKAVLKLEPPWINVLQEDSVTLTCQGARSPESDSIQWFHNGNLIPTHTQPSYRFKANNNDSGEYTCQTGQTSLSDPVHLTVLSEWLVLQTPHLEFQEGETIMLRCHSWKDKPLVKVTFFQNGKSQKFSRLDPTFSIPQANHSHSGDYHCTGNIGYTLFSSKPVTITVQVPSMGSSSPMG

[7] = molecular target: T7, cynomolgus monkey FcγRIIa2 extracellular domain with C-terminal His-tag (cynomolgus monkey)
T7 construct: Expressed in FreeStyle 293 cells and purified; also called cyno FcγRIIa2; cynoFcgRIIa2; not shown: C-terminal His-tag
T7 chain: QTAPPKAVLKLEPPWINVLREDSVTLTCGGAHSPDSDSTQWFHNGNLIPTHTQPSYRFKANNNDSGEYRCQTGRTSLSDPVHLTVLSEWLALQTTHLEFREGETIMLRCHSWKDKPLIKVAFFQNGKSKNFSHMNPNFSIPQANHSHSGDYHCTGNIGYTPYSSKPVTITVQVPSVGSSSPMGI

[8] = molecular target: T8, cynomolgus monkey FcγRIIIaS extracellular domain with C-terminal His-tag (cynomolgus monkey, UniProt Q8SPW2 21-206 at identity 1.00))
T8 construct: Expressed in FreeStyle 293 cells and purified; also called cyno FcγRIIIaS; cynoFcγRIIIaS; not shown: C-terminal His-tag
T8 chain: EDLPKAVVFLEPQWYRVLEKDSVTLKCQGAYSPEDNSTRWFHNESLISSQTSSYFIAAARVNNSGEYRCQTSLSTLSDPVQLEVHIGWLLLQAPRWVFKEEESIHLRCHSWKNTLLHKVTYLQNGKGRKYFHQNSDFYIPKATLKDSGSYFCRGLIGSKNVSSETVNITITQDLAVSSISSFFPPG

B1: M103205H795-MY177 / M103202L889-SK1 (antibody, human IgG1, kappa)
heavy: QVTLKESGPVLVKPTETLTLTCTVSGIDLSHDDISWVRQAPGKGLEWVGIISYAGSTYYASWAKGRLTISKDTSKNQVVLTMTNMDPVDTATYYCARGVPAYSHGGDLWGQGTLVTVSSASTKGPSVFPLAPSSKSTSGGTAALGCLVKDYFPEPVTVSWNSGALTSGVHTFPAVLQSSGLYSLSSVVTVPSSSLGTQTYICNVNHKPSNTKVDKKVEPKSCDKTHTCPPCPAPELLNGPSVFLFPPKPKDTLMISRTPEVTCVVVDVSEEDPEVKFNWYVDGVEVHNAKTKPREEQYNSTYRVVSVLTVLHQDWLNGKEYKCKVSNKALPAPIEKTISKAKGQPREPQVYTLPPSREEMTKNQVSLTCLVKGFYPSDIAVEWESNGQPENNYKTTPNVLDSDGSFFLYSKLTVDKSRWQQGNVFSCSVMHEALHNHYTQKSLSLSP
light: DIVMTQSPATLSLSPGERATLSCTSSQSVYHANWLSWFQQKPGQPPKLLIYWASTLAYGVPSRFSGSGSGTDFTLTISSLQPEDAATYYCAGGYGGGRYAFGQGTKVEIKRTVAAPSVFIFPPSDEQLKSGTASVVCLLNNFYPREAKVQWKVDNALQSGNSQESVTEQDSKDSTYSLSSTLTLSKADYEKHKVYACEVTHQGLSSPVTKSFNRGEC
notes: Position 396 variant derived from MY052, expressed with M103202L889-SK1 as light chain
Kd [1]: 830 nM
Kd [2]: 10000 nM
Kd [3]: 1900 nM
Kd [4]: 8100 nM
Kd [5]: 6200 nM
Kd [6]: 2800 nM
Kd [7]: 1800 nM
Kd [8]: 2900 nM

B2: M103205H795-MY180 / M103202L889-SK1 (antibody, human IgG1, kappa)
heavy: QVTLKESGPVLVKPTETLTLTCTVSGIDLSHDDISWVRQAPGKGLEWVGIISYAGSTYYASWAKGRLTISKDTSKNQVVLTMTNMDPVDTATYYCARGVPAYSHGGDLWGQGTLVTVSSASTKGPSVFPLAPSSKSTSGGTAALGCLVKDYFPEPVTVSWNSGALTSGVHTFPAVLQSSGLYSLSSVVTVPSSSLGTQTYICNVNHKPSNTKVDKKVEPKSCDKTHTCPPCPAPELLNGPSVFLFPPKPKDTLMISRTPEVTCVVVDVSEEDPEVKFNWYVDGVEVHNAKTKPREEQYNSTYRVVSVLTVLHQDWLNGKEYKCKVSNKALPAPIEKTISKAKGQPREPQVYTLPPSREEMTKNQVSLTCLVKGFYPSDIAVEWESNGQPENNYKTTPSVLDSDGSFFLYSKLTVDKSRWQQGNVFSCSVMHEALHNHYTQKSLSLSP
light: DIVMTQSPATLSLSPGERATLSCTSSQSVYHANWLSWFQQKPGQPPKLLIYWASTLAYGVPSRFSGSGSGTDFTLTISSLQPEDAATYYCAGGYGGGRYAFGQGTKVEIKRTVAAPSVFIFPPSDEQLKSGTASVVCLLNNFYPREAKVQWKVDNALQSGNSQESVTEQDSKDSTYSLSSTLTLSKADYEKHKVYACEVTHQGLSSPVTKSFNRGEC
notes: as for B1
Kd [1]: 1300 nM
Kd [2]: 1700 nM
Kd [3]: 2600 nM
Kd [4]: 12000 nM
Kd [5]: 5900 nM
Kd [6]: 3000 nM
Kd [7]: 2700 nM
Kd [8]: 3100 nM

B3: M103205H795-MY179 / M103202L889-SK1 (antibody, human IgG1, kappa)
heavy: QVTLKESGPVLVKPTETLTLTCTVSGIDLSHDDISWVRQAPGKGLEWVGIISYAGSTYYASWAKGRLTISKDTSKNQVVLTMTNMDPVDTATYYCARGVPAYSHGGDLWGQGTLVTVSSASTKGPSVFPLAPSSKSTSGGTAALGCLVKDYFPEPVTVSWNSGALTSGVHTFPAVLQSSGLYSLSSVVTVPSSSLGTQTYICNVNHKPSNTKVDKKVEPKSCDKTHTCPPCPAPELLNGPSVFLFPPKPKDTLMISRTPEVTCVVVDVSEEDPEVKFNWYVDGVEVHNAKTKPREEQYNSTYRVVSVLTVLHQDWLNGKEYKCKVSNKALPAPIEKTISKAKGQPREPQVYTLPPSREEMTKNQVSLTCLVKGFYPSDIAVEWESNGQPENNYKTTPRVLDSDGSFFLYSKLTVDKSRWQQGNVFSCSVMHEALHNHYTQKSLSLSP
light: DIVMTQSPATLSLSPGERATLSCTSSQSVYHANWLSWFQQKPGQPPKLLIYWASTLAYGVPSRFSGSGSGTDFTLTISSLQPEDAATYYCAGGYGGGRYAFGQGTKVEIKRTVAAPSVFIFPPSDEQLKSGTASVVCLLNNFYPREAKVQWKVDNALQSGNSQESVTEQDSKDSTYSLSSTLTLSKADYEKHKVYACEVTHQGLSSPVTKSFNRGEC
notes: as for B1
Kd [1]: 980 nM
Kd [2]: 11000 nM
Kd [3]: 1900 nM
Kd [4]: 7900 nM
Kd [5]: 5900 nM
Kd [6]: 2100 nM
Kd [7]: 2000 nM
Kd [8]: 2700 nM

B4: M103205H795-MY178 / M103202L889-SK1 (antibody, human IgG1, kappa)
heavy: QVTLKESGPVLVKPTETLTLTCTVSGIDLSHDDISWVRQAPGKGLEWVGIISYAGSTYYASWAKGRLTISKDTSKNQVVLTMTNMDPVDTATYYCARGVPAYSHGGDLWGQGTLVTVSSASTKGPSVFPLAPSSKSTSGGTAALGCLVKDYFPEPVTVSWNSGALTSGVHTFPAVLQSSGLYSLSSVVTVPSSSLGTQTYICNVNHKPSNTKVDKKVEPKSCDKTHTCPPCPAPELLNGPSVFLFPPKPKDTLMISRTPEVTCVVVDVSEEDPEVKFNWYVDGVEVHNAKTKPREEQYNSTYRVVSVLTVLHQDWLNGKEYKCKVSNKALPAPIEKTISKAKGQPREPQVYTLPPSREEMTKNQVSLTCLVKGFYPSDIAVEWESNGQPENNYKTTPQVLDSDGSFFLYSKLTVDKSRWQQGNVFSCSVMHEALHNHYTQKSLSLSP
light: DIVMTQSPATLSLSPGERATLSCTSSQSVYHANWLSWFQQKPGQPPKLLIYWASTLAYGVPSRFSGSGSGTDFTLTISSLQPEDAATYYCAGGYGGGRYAFGQGTKVEIKRTVAAPSVFIFPPSDEQLKSGTASVVCLLNNFYPREAKVQWKVDNALQSGNSQESVTEQDSKDSTYSLSSTLTLSKADYEKHKVYACEVTHQGLSSPVTKSFNRGEC
notes: as for B1
Kd [1]: 950 nM
Kd [2]: 1200 nM
Kd [3]: 2000 nM
Kd [4]: 8700 nM
Kd [5]: 4500 nM
Kd [6]: 2300 nM
Kd [7]: 2100 nM
Kd [8]: 3000 nM

B5: M103205H795-MY181 / M103202L889-SK1 (antibody, human IgG1, kappa)
heavy: QVTLKESGPVLVKPTETLTLTCTVSGIDLSHDDISWVRQAPGKGLEWVGIISYAGSTYYASWAKGRLTISKDTSKNQVVLTMTNMDPVDTATYYCARGVPAYSHGGDLWGQGTLVTVSSASTKGPSVFPLAPSSKSTSGGTAALGCLVKDYFPEPVTVSWNSGALTSGVHTFPAVLQSSGLYSLSSVVTVPSSSLGTQTYICNVNHKPSNTKVDKKVEPKSCDKTHTCPPCPAPELLNGPSVFLFPPKPKDTLMISRTPEVTCVVVDVSEEDPEVKFNWYVDGVEVHNAKTKPREEQYNSTYRVVSVLTVLHQDWLNGKEYKCKVSNKALPAPIEKTISKAKGQPREPQVYTLPPSREEMTKNQVSLTCLVKGFYPSDIAVEWESNGQPENNYKTTPTVLDSDGSFFLYSKLTVDKSRWQQGNVFSCSVMHEALHNHYTQKSLSLSP
light: DIVMTQSPATLSLSPGERATLSCTSSQSVYHANWLSWFQQKPGQPPKLLIYWASTLAYGVPSRFSGSGSGTDFTLTISSLQPEDAATYYCAGGYGGGRYAFGQGTKVEIKRTVAAPSVFIFPPSDEQLKSGTASVVCLLNNFYPREAKVQWKVDNALQSGNSQESVTEQDSKDSTYSLSSTLTLSKADYEKHKVYACEVTHQGLSSPVTKSFNRGEC
notes: as for B1
Kd [1]: 1000 nM
Kd [2]: 1300 nM
Kd [3]: 2300 nM
Kd [4]: 9200 nM
Kd [5]: 7300 nM
Kd [6]: 2500 nM
Kd [7]: 2300 nM
Kd [8]: 4100 nM
